Assay results: PMC4831024 (2016)
Ends that are not written are not given here.

Target: Ku70/Ku80ΔC heterodimer (human, UniProt P12956 1-609; P13010 1-590)
Assay: FP

Chain of Ku70/Ku80ΔC heterodimer (P12956 whole entry, stated change not applied, chain 1 of 2): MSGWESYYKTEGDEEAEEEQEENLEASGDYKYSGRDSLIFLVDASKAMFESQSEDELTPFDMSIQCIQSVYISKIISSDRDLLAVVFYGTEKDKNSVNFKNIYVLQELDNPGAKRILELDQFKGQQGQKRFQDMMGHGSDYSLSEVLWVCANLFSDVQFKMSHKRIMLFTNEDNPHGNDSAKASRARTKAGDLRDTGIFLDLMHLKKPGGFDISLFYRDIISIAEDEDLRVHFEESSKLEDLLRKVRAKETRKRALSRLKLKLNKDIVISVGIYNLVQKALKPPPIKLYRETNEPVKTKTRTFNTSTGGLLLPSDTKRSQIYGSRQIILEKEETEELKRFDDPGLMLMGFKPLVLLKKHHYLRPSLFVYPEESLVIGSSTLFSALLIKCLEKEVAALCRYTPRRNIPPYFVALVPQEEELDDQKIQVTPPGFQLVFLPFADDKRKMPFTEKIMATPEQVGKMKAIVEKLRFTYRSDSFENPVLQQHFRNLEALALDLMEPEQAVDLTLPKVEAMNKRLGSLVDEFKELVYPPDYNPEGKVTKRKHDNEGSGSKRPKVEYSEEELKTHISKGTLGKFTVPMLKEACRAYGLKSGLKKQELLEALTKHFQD
Chain of Ku70/Ku80ΔC heterodimer (P13010 1-590, stated change not applied, chain 2 of 2): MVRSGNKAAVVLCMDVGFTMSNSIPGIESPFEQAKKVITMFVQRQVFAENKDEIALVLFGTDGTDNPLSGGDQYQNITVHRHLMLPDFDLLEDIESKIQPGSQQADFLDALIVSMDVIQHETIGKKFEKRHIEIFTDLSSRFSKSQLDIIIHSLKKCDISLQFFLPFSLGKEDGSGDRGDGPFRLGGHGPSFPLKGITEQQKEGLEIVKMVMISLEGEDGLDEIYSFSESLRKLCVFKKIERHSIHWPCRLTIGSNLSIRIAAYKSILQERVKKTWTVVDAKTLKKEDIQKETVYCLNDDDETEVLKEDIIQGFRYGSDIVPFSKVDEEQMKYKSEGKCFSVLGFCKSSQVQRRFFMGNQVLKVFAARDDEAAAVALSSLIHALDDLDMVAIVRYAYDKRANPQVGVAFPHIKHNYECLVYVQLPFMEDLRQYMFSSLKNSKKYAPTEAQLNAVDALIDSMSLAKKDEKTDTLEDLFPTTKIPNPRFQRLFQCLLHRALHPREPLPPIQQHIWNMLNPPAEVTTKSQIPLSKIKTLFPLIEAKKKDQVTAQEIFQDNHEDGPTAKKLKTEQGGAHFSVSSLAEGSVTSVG

Binder	Kd [nM]
Fluorescein-GGYGSSAERKRRLPVWFAKG [fluorescein-labelled WRN-cA peptide (C-terminal KBM of WRN)]	790
Fluorescein-GGYGAQQRKCPEWMNVQN [fluorescein-labelled WRN-nA peptide (N-terminal KBM of WRN)]	1170
Fluorescein-GGYGSSAERKRRLPVWFAKGSDTSKKLMDKTKRGGLFS [fluorescein-labelled WRN-cAX peptide (C-terminal KBM plus XLF-like motif of WRN)]	720
